In article PMC6980832, “Crystal structures of Triosephosphate Isomerases from Taenia solium and Schistosoma mansoni provide insights for vaccine rationale and drug design against helminth parasites” (PLoS Neglected Tropical Diseases, 2020):

Columns and labels:
Assay in all cases: SEC; gel filtration elution profile of wild-type and point mutants of SmTPI; conditions not shown
[1] = molecular target: SmTPI-C221Y (Schistosoma mansoni)
[2] = molecular target: SmTPI-C221D (Schistosoma mansoni)
[3] = molecular target: SmTPI-C221K (Schistosoma mansoni)
[4] = molecular target: SmTPI-C221S (Schistosoma mansoni)

Q: How did the stoichiometry N [1] turn out when SmTPI-C221Y (enzyme) was run?
A: 2

Q: How did the stoichiometry N [2] turn out when SmTPI-C221D (enzyme) was run?
A: 2

Q: How did the stoichiometry N [3] turn out when SmTPI-C221K (enzyme) was run?
A: 2

Q: SmTPI-C221S (enzyme) was tested. Which stoichiometry N [4] did it give?
A: 2
